According to patent US20220195058A1 (Regeneron, published 2022):
Like-named read-outs stand apart in the source and are kept apart here.

T1: human NPR1 (hNPR1) with a C-term myc and FLAG tag, stably expressed on HEK293 cells (human, UniProt P16066 33-1061)
T1 sequence: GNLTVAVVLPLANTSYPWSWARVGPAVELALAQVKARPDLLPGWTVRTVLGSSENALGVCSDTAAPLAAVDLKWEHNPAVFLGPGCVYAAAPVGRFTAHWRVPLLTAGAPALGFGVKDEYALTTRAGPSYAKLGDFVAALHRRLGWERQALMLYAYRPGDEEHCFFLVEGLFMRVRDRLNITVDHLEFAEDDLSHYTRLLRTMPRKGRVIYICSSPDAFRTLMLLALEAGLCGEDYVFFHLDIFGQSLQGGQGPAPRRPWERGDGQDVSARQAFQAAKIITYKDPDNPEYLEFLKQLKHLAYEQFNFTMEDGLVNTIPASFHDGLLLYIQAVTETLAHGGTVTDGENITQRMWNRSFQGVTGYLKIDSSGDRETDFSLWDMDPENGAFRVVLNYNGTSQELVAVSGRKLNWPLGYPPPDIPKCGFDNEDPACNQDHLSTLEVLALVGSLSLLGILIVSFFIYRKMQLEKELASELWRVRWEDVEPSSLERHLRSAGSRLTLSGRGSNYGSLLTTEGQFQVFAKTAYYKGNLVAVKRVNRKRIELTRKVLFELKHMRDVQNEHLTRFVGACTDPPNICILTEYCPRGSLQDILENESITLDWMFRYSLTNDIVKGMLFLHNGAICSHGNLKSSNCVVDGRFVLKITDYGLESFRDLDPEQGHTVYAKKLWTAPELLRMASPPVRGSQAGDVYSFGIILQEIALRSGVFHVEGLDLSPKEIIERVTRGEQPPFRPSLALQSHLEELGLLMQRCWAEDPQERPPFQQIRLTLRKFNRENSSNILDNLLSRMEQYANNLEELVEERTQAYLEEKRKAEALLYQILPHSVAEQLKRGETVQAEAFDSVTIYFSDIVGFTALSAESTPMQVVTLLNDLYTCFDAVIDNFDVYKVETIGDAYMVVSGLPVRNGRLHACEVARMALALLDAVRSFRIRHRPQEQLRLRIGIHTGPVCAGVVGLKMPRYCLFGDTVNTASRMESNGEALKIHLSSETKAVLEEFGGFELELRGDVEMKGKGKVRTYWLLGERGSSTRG

B1: R5381 (antibody, V domains shown)
VH: QVQLVQSGAEVKKPGASVTVSCKASGYTFTDYYMHWVRQAPGQGLEWMGWIKPNSGGTNSAQRFQGRITMTWDTSISTAYMELSRLRSDDTAVYYCSRGGPVMNYYYYYGMDVWGQGTTVTVSS
VL: NIQMTQSPSSLSASVGDRVTITCRASQSIDSYLNWYQQKPGKAPKLLIYVASSLQSGVPSRFSGSGSGKDFTLTISSLQPEDFATYYCQQSYSIPTFGQGTRLEIKR
B2: REGN9037 (antibody, human IgG4 S228P, kappa)
heavy: QVQLQESGPGLVKPSETLSLTCTVSGASISTYYWSWIRQPPGKGLEWIGYIYYSGTTNYNPSLKSRVTISVDTSKNQFSLKLSSVTAADTAVYYCARDRGGYDGEWGQGTLVTVSSASTKGPSVFPLAPCSRSTSESTAALGCLVKDYFPEPVTVSWNSGALTSGVHTFPAVLQSSGLYSLSSVVTVPSSSLGTKTYTCNVDHKPSNTKVDKRVESKYGPPCPPCPAPEFLGGPSVFLFPPKPKDTLMISRTPEVTCVVVDVSQEDPEVQFNWYVDGVEVHNAKTKPREEQFNSTYRVVSVLTVLHQDWLNGKEYKCKVSNKGLPSSIEKTISKAKGQPREPQVYTLPPSQEEMTKNQVSLTCLVKGFYPSDIAVEWESNGQPENNYKTTPPVLDSDGSFFLYSRLTVDKSRWQEGNVFSCSVMHEALHNRFTQKSLSLSPGK
chain: not shown
light: not shown
notes: Monovalent (one-armed) human IgG4: one full heavy chain, one light chain and one truncated heavy chain (Fc); also called one-armed anti-R5381 antibody; monovalent anti-R5381 mAb
B3: REGN6580 (antibody, human IgG4 S228P, kappa, V domains shown)
VH: QVQLVESGGGVVQPGRSLRLSCAASGFTFSSYGMHWVRQAPGKGLEWVALIWFDGGYKYYADSVKGRFTISRDNSKNTLYLQMNSLRADDTAVYYCARGSAAAGHVPFDYWGQGILVTVSS
VL: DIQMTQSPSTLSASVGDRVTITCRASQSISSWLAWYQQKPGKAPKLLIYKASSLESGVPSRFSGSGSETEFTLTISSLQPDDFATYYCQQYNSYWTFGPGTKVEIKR
notes: Bivalent human IgG4; also called bivalent anti-R5381 mAb; anti-idiotype antibody
B4: REGN6581 (antibody, human IgG4 S228P, kappa, V domains shown)
VH: QVQLQESGPGLVKPSETLSLTCTVSGASISTYYWSWIRQPPGKGLEWIGYIYYSGTTNYNPSLKSRVTISVDTSKNQFSLKLSSVTAADTAVYYCARDRGGYDGEWGQGTLVTVSS
VL: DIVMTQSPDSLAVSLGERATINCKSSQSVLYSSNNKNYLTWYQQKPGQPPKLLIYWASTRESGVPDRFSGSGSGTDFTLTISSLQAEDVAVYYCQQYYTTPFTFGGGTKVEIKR
notes: as for B3
B5: REGN9035 (antibody, human IgG4 S228P, kappa)
heavy: QVQLVESGGGVVQPGRSLRLSCAASGFTFSSYGMHWVRQAPGKGLEWVALIWFDGGYKYYADSVKGRFTISRDNSKNTLYLQMNSLRADDTAVYYCARGSAAAGHVPFDYWGQGILVTVSSASTKGPSVFPLAPCSRSTSESTAALGCLVKDYFPEPVTVSWNSGALTSGVHTFPAVLQSSGLYSLSSVVTVPSSSLGTKTYTCNVDHKPSNTKVDKRVESKYGPPCPPCPAPEFLGGPSVFLFPPKPKDTLMISRTPEVTCVVVDVSQEDPEVQFNWYVDGVEVHNAKTKPREEQFNSTYRVVSVLTVLHQDWLNGKEYKCKVSNKGLPSSIEKTISKAKGQPREPQVYTLPPSQEEMTKNQVSLTCLVKGFYPSDIAVEWESNGQPENNYKTTPPVLDSDGSFFLYSRLTVDKSRWQEGNVFSCSVMHEALHNRFTQKSLSLSPGK
chain: not shown
light: not shown
notes: as for B2

Columns and labels:
[1] = molecular target: T1, human NPR1 (hNPR1) with a C-term myc …; experiment: cell-based or functional assay
R5381 [2] = molecular target: B1; experiment: cell-based or functional assay
REGN1945 [3] = experiment: cell-based or functional assay
R5381 [4] = molecular target: B1; experiment: cell-based or functional assay; remark: listed apart in the source
H2aM22033N [5] = molecular target: T2, H2aM22033N; experiment: SPR Biacore T200, H2aM22033N captured via anti-mouse Fc, analyte injected, 25 C, pH 7.4
T2 construct: also called parental hybridoma of R5381
Method: (§1) All binding studies were performed in 10 mM HEPES, 150 mM NaCl, 3 mM EDTA, and 0.05% v/v Surfactant Tween-20, pH 7.4 (HBS-ET) running buffer at 25° C. and 37° C. The Biacore CM5 sensor chip surface was first derivatized by amine coupling with anti-mouse Fc specific antibody (GE Healthcare, # BR100838) to capture H2aM22033N. […] The dissociation of different mAbs bound to H2aM22033N was monitored for 10 minutes in HBS-ET running buffer. At the end of each cycle, the H2aM22033N capture surface was regenerated using a 60 sec injection of 10 mM Glycine-HCl, pH 1.5. The association rate (kₐ) and dissociation rate (kd) were determined by fitting the real-time binding sensorgrams to a 1:1 binding model with mass transport limitation using Scrubber 2.0c curve-fitting software. Binding dissociation equilibrium constant (KD) and dissociative half-life (t½) were calculated from the kinetic rates as:

H2aM22033N [6] = molecular target: T2, H2aM22033N; experiment: SPR Biacore T200, H2aM22033N captured via anti-mouse Fc, analyte injected, 37 C, pH 7.4
Method: as §1

R5381 [7] = molecular target: B1; experiment: blocking ELISA: antibody pre-bound to 95 pM Biotin-R5381, binding to coated hNPR1.ecto.mmh read
Method: After 1 hour, incubation at RT, the pre-bind reaction mix was transferred to microtiter plates coated with hNPR1.ecto.mmh. The microtiter plates were incubated at RT for 1 hour and then washed with plate washing solution. […] The plates were incubated with detection protein for 1 hour at RT and then washed with plate washing solution. The assay plates were developed with TMB colorimetric substrates according to the manufacturer's recommended procedure.
The absorbance at 450 nm for each well was recorded and plotted as the function of the concentration of antibody. Data was analyzed in GraphPad Prism software using a four-parameter logistic equation over an 11-point dose response curve and IC₅₀ values were calculated.

H2aM22033N [8] = molecular target: T2, H2aM22033N; experiment: SPR Biacore 4000, H2aM22033N captured via anti-mouse Fc, 37 C, association pH 7.4, dissociation pH 7.4
Method: (§2) All binding studies were performed at 37° C. using four running buffers, (i) PBS, 0.05% v/v Surfactant Tween-20, pH 7.4 (PBS-T-pH 7.4), (ii) PBS, 0.05% v/v Surfactant Tween-20, pH 6.5 (PBS-T-pH 6.5), (iii) PBS, 0.05% v/v Surfactant Tween-20, pH 6.0 (PBS-T-pH 6.0), and (iv) PBS, 0.05% v/v Surfactant Tween-20, pH 5.0 (PBS-T-pH 5.0).
(§3) The dissociation rate constants (kd) in four pH running buffers were determined by fitting the real-time binding sensorgrams to a 1:1 binding model using Scrubber 2.0c curve-fitting software. The dissociative half-life (t½) was calculated from the kd values as:

H2aM22033N [9] = molecular target: T2, H2aM22033N; experiment: SPR Biacore 4000, H2aM22033N captured via anti-mouse Fc, 37 C, association pH 7.4, dissociation pH 6.5
Method: as §2, §3

H2aM22033N [10] = molecular target: T2, H2aM22033N; experiment: SPR Biacore 4000, H2aM22033N captured via anti-mouse Fc, 37 C, association pH 7.4, dissociation pH 6.0
Method: as §2, §3

H2aM22033N [11] = molecular target: T2, H2aM22033N; experiment: SPR Biacore 4000, H2aM22033N captured via anti-mouse Fc, 37 C, association pH 7.4, dissociation pH 5.0
Method: as §2, §3

REGN1945 [12] = experiment: cell-based or functional assay; remark: listed apart in the source
R5381 [13] = molecular target: B1; experiment: cell-based or functional assay; remark: listed apart in the source

IC50 of inhibition of 70 nM R5381-induced cGMP, 40 pM ANP (R5381 [2]) [M] | IC50 of inhibition of 70 nM R5381-induced cGMP, 80 pM BNP (R5381 [2]) [M] | IC50 of inhibition of 70 nM R5381-induced cGMP, no ligand (R5381 [2]) [nM] | Max Inh. (%) of 70 nM R5381-induced cGMP, 40 pM ANP (R5381 [2]) [%] | Max Inh. (%) of 70 nM R5381-induced cGMP, 80 pM BNP (R5381 [2]) [%] | Max Inh. (%) of 70 nM R5381-induced cGMP, no ligand (R5381 [2]) [%] | C1q-CIC assay Final Value; 100 nM antibody + 100 nM antigen; Result Neg (REGN1945 [3]) [ug Eq/mL] | C1q-CIC assay Final Value; 1 uM antibody + 100 nM antigen; Result Neg (REGN1945 [3]) [ug Eq/mL] | 100 nM Ag Bound (RU) (H2aM22033N [5]) | Kd (H2aM22033N [5]) [nM] | koff (H2aM22033N [5]) [s⁻¹] | kon (H2aM22033N [5]) [M⁻¹ s⁻¹] | t1/2 (H2aM22033N [5]) [min] | 100 nM Ag Bound (RU) (H2aM22033N [6]) | Kd (H2aM22033N [6]) [nM] | koff (H2aM22033N [6]) [s⁻¹] | kon (H2aM22033N [6]) [M⁻¹ s⁻¹] | t1/2 (H2aM22033N [6]) [min] | % Blocking with 333.33 nM antibody (R5381 [7]) [%] | IC50 (R5381 [7]) [nM] | also measured | Binder
– | – | – | – | – | – | – | – | – | – | – | – | – | – | – | – | – | – | – | – | cGMP accumulation (HTRF) EC50, no ligand [1]: 31.2 nM; cGMP accumulation (HTRF) EC50, with 40 pM ANP [1]: 2.07e-08 M; cGMP accumulation (HTRF) EC50, with 80 pM BNP [1]: 1.78e-09 M | B1
1.76e-08 | 3.81e-08 | 36.3 | 101 | 97 | 99 | 0.37 | 0.55 | 31 | 1.52 | 9.89e-05 | 65100 | 117 | 55 | 6.71 | 0.000738 | 110000 | 16 | 99 | 2.4 | C1q-CIC assay Final Value; 100 nM antibody + 100 nM antigen; Result Neg (R5381 [4]): 0.64 ug Eq/mL; C1q-CIC assay Final Value; 1 uM antibody + 100 nM antigen; Result Neg (R5381 [4]): 0.42 ug Eq/mL; koff (H2aM22033N [8]): 0.000867 s⁻¹; t1/2 (H2aM22033N [8]): 13 min; koff (H2aM22033N [9]): 0.000792 s⁻¹; t1/2 (H2aM22033N [9]): 15 min; koff (H2aM22033N [10]): 0.000811 s⁻¹; t1/2 (H2aM22033N [10]): 14 min; koff (H2aM22033N [11]): 0.000664 s⁻¹; t1/2 (H2aM22033N [11]): 17 min | B2
2.23e-08 | 3.32e-08 | 15.5 | 102 | 99 | 99 | – | – | 110 | 0.528 | 9.42e-05 | 178000 | 123 | 160 | 0.914 | 0.000424 | 464000 | 27 | 100 | 0.381 | C1q-CIC assay Final Value; 100 nM antibody + 100 nM antigen; Result Neg (REGN1945 [12]): 0.11 ug Eq/mL; C1q-CIC assay Final Value; 1 uM antibody + 100 nM antigen; Result Neg (REGN1945 [12]): 0.16 ug Eq/mL; C1q-CIC assay Final Value; 100 nM antibody + 100 nM antigen; Result Neg (R5381 [13]): 0.22 ug Eq/mL; C1q-CIC assay Final Value; 1 uM antibody + 100 nM antigen; Result Neg (R5381 [13]): 0.2 ug Eq/mL | B3
2.06e-08 | 3.5e-08 | 18 | 104 | 99 | 100 | 0.35 | 0.3 | 65 | 0.561 | 7.11e-05 | 127000 | 163 | 104 | 1.16 | 0.000367 | 317000 | 31 | 100 | 0.543 | C1q-CIC assay Final Value; 100 nM antibody + 100 nM antigen; Result Neg (R5381 [4]): 0.65 ug Eq/mL; C1q-CIC assay Final Value; 1 uM antibody + 100 nM antigen; Result Neg (R5381 [4]): 0.53 ug Eq/mL | B4
2.66e-08 | 4.13e-08 | 46 | 104 | 97 | 100 | – | – | 47 | 1.76 | 0.000132 | 75100 | 87 | 81 | 5.78 | 0.00086 | 149000 | 13 | 99.3 | 2.04 | C1q-CIC assay Final Value; 100 nM antibody + 100 nM antigen; Result Neg (REGN1945 [12]): 0.15 ug Eq/mL; C1q-CIC assay Final Value; 1 uM antibody + 100 nM antigen; Result Neg (REGN1945 [12]): 0.2 ug Eq/mL; C1q-CIC assay Final Value; 100 nM antibody + 100 nM antigen; Result Neg (R5381 [13]): 0.18 ug Eq/mL; C1q-CIC assay Final Value; 1 uM antibody + 100 nM antigen; Result Neg (R5381 [13]): 0.29 ug Eq/mL; koff (H2aM22033N [8]): 0.000996 s⁻¹; t1/2 (H2aM22033N [8]): 12 min; koff (H2aM22033N [9]): 0.00142 s⁻¹; t1/2 (H2aM22033N [9]): 8 min; koff (H2aM22033N [10]): 0.00294 s⁻¹; t1/2 (H2aM22033N [10]): 3.9 min; koff (H2aM22033N [11]): 0.0197 s⁻¹; t1/2 (H2aM22033N [11]): 0.6 min | B5
